Values of other authors as cited in paper PMC7017177.
pKd: −log10 of the molar value.

Molecular target: CTLA-4 (Homo sapiens) (UniProt P16410)
UniProt P16410, sequence (P16410 36-161): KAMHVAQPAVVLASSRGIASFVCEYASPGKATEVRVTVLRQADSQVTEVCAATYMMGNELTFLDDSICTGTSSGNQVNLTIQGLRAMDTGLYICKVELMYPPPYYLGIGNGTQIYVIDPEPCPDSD

Q: With Tremelimumab as the substance, how does the pKd read?
A: 9.55
